From paper doi:10.1101/2022.06.14.496074 (bioRxiv, 2022)

What was measured:
TolC = biological target: T1, TolC (E. coli, UniProt P02930 23-493); assay: single-channel electrophysiology
T1 sequence: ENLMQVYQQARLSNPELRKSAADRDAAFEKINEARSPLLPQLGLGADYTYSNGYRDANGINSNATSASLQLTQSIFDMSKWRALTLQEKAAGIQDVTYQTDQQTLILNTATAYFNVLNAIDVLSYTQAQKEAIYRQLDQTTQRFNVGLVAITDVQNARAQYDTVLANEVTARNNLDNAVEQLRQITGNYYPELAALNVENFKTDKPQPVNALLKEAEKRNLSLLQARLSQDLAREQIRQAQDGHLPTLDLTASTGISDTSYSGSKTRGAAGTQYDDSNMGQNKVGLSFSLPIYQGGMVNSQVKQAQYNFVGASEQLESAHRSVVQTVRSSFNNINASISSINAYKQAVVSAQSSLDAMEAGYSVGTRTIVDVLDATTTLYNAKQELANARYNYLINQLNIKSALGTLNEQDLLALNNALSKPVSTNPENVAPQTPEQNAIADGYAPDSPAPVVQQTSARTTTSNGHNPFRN

[1] = biological target: T2, AcrA (E. coli (K12 derived strain)), P0AE06; assay: SEC; conditions: remark: other sources report otherwise
T2 chain: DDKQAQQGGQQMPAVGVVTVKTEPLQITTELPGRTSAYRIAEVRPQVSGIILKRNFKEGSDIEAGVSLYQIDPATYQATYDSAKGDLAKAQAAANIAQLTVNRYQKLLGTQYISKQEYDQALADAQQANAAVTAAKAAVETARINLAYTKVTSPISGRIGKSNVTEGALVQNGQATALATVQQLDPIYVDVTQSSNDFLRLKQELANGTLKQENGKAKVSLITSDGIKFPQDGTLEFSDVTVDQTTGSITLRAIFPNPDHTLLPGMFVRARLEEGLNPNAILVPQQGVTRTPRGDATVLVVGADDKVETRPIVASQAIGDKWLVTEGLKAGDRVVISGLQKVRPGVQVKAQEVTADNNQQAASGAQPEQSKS

binding result (TolC): binds
stoichiometry N [1]: 2
B1: AcrA (natural protein)
chain: DDKQAQQGGQQMPAVGVVTVKTEPLQITTELPGRTSAYRIAEVRPQVSGIILKRNFKEGSDIEAGVSLYQIDPATYQATYDSAKGDLAKAQAAANIAQLTVNRYQKLLGTQYISKQEYDQALADAQQANAAVTAAKAAVETARINLAYTKVTSPISGRIGKSNVTEGALVQNGQATALATVQQLDPIYVDVTQSSNDFLRLKQELANGTLKQENGKAKVSLITSDGIKFPQDGTLEFSDVTVDQTTGSITLRAIFPNPDHTLLPGMFVRARLEEGLNPNAILVPQQGVTRTPRGDATVLVVGADDKVETRPIVASQAIGDKWLVTEGLKAGDRVVISGLQKVRPGVQVKAQEVTADNNQQAASGAQPEQSKS
